This is an account of results in a protein production outcome set (Wang et al. 2014).

This data set can be described thus: label from the status in PepcDB records.
Turning to “NKDNLDLAGLTSLLSEKIKEFLQEKKMQSFYQQELETVESLQSLASRPVTHSTGSDQVELKDSGTSGVAQRVFKNALQLLQEKGLVFQRDSGSDKLYYVTTKDKDLQ”, the protein production result is “not failed”.
In the case of “NKELNELNIIKLTRMMYYGQLLHYLSIGLTLVMTYSCNLRCPYCYEGDIKSKGGLLTREKIETILTFASAHAQGDKKPTISVSFYGGEPLLNWKGCEYTLQRLEEMKENKEIRDYSAGFVTNGTLINEDIVDAINNYNVYSMQITLDGPKEIHDKRRIKSNGEGTFDQIIENIKLLNRRIANKNFHLALRINVDKTNYKKIPELLDFLKDEGLGGIPISYGIVRGNLPYCSSNCGVYFSGSDLQKYLPYLWKEAYRRGFEVWTRPNL” it was “failed”; in that of “NLMKRCTRGFRKLGKCTTLEEEKCKTLYPRGQCTCSDSKMNTHSCDCKSC”, “not failed”; in that of “NQLSGLHSMEEQLAKKLQIKKCLVVQGDSDDTPWVREEMGRVAVEQLDMALTEKRNIVAVMGGSTMATVAEMMTTDFAKGRELLFVPGRGGIGEDLDNQANTICDKMATKTNTKHRVLYVPEQLGEEAYRSLLKEPAIQEGLRLVQSANAIILGIGDALAMAKRRHTGEDVLEKIIRRKAVGEAFGYYFDEQGEVVHKVPTFGLQFEDLAQIPHIIAVAGGTSKAKAIKSYMKSAPKNTILITDEGAAKSLLK”, “not failed”.
In the case of “NSVNCDELGPLPPGWEVRSTVSGRIYFVDHNNRTTQFTDPRLHHIMNHQCQLKEPSQPLPLPS” it was “failed”; in that of “PAGVMIADAASGKLVLTNEQAKQILRYQFEDSLELKEYAPVTPFAAFRCDGQPYDPYEYPLPRSLLTGEVISQEEMLLRWEDNSHIFISVNSAPILDSQGQIAAAAIVFQDVTERKHLESELQQREQEFKMVAENAP”, “failed”; in that of “PAKWKRGRPDILHVALLTTTDSPLYNEGLLRIYFQVYDGRLFEVGTGVRVPKNYERFRGLVAQLLKTERVPPGEGEALIRLHSRSLAEFVEREGRFILMWEKGSPTTTTYVAARALSTGLPIGVGCFPRGEFKRSTLRKASEAYSIMGGAPLKTWGVASRIVYALER”, “failed”.
In the case of “PCYENKFAPRCARCSKTLTQGGVTYRDQPWHRECLVCTGCQTPLAGQQFTSRDEDPYCVACFGELFA” it was “not failed”.
With “PDAARKAQILWCQPDRAKAWTDWMRKGKFPVGGSICDNPVAETTSLGEQFGFNGTPTLVFPNGRSQSGYSPMPQLEEIIRKNQ”, the protein production entry was “not failed”.
In the case of “PDTIIAVDRDHRIIYVNRAMPGHKKTLAVGDHLCDHIMQPYHDRYHHTIERVIVTGKTAVLECELVVSPEETIELESRFAPCFLNGEVTSVVMLSVDITERKGMELELKKTLIDLERFNRVMVGRELRNIELKKRIASLQNDLVLSSGNAQASDDSRQDFATEDEDCAGIHHGDGFEEACDEVQYRKQQRMALLNLIEDANLARNELLETNRKLEESVIRTQEMARAASKANEAKSQFLANMSHEVRTPMNGVIGMSDLLLDTS” it was “failed”; in that of “PEQIWAKQQKDGSWLMDALIPLNELKYKLGLTTIEGEESEGFQTLNGFLTWWLGRLPHAGELVDYEGWQFEVLNVKHHRIVQVKVSRET”, “failed”.
In the case of “PFKESQARGLLQDNMANGYNGEDFESGLLELSKEIFPTNKYLYQDGQYLDKKTINAYLDPKYTKKEIDKMSEKEKKSKNANENLGLNPSHNGETDEEKIAKNSPAYLSNILEQDFYGNSDSKGKNIKGMTIGLAMNSVYYYKKEKDGETFSKDLSDKEIEKQGKQMASEMLSRLRENSDLKDIPIHFAIYKQSSQDSITPGEFIVGTTVEEGKTKINSWDNINEKAALIPSSTAADYDETLNNNFKQFNDNLQSYFSNFTQAVGKVKFVNKKAKQLTVDLPIDYYGQAETIGITQYVTEQAEKYFDKLDEYEIRIKDGNTPRALISKTKDDKEPQVHIYHN” it was “not failed”; in that of “PGQVIGLFGGSFDPPHAGHVHVTREALKMFGLDRVWWLVTPGNPLKAHGPAPLDRRMEAARAMMRHPRVDVTDIEAHLGTRVTADTIAALRRIYPRVRFVWLMGADNLAQLHRWKDWRQIIETVPVGVLARPGDRISARMSPAARAYAPYRIDGQARHLLGRAEAPAWCFVNVPMVDVSSTRIRAAGGWSAAQQGR”, “failed”.
In the case of “PINVRVTTMDAELEFAIQPNTTGKQLFDQVVKTVGLREVWFFGLQYVDSKGYSTWLKLNKKVTQQDVKKENPLQFKFRAK” it was “failed”; in that of PKQRCRAPACDHFGNAKCNGYCNECFQFKQMYG, “not failed”.
As to “PLADTRFLQRRRALSAQLAAKRIDAMLVTHLTHIRYLSGFTGSNAALIINKDLSARISTDGRYITQIAEQVPDIESLMARNCAPALLSDINGPKRVGFEADYLSVSQCEELRKSAGSDVELIPVTGAIEKLR”, the protein production result was “not failed”.
Turning to “PLTTHNMNSSTSNKVALNAAREGIVLLKNQGDLLPLDKQKVKKIAVVGTLAKYAPPTGFGSANVMASHYVSELSGLQQMAPNAKVEFIDGLSLDPSTSAWNTTDAAGNSVQGMKVEYFSNTNWSGDAAVTRTEQHVDLDWANDKNLPFESNTSTSDPYTTKGSTAGELNGDTSSTSIRYTGKITPTQSGEQVFKVRADGAVRLWVNGKKIIDNGDGKPLPGNSIPPTIPEFAKINLEAGQSYDVKLEYSRRAGYLSTMGGLVGVQLSSASLNAPQDLSGYDAVVVAVGNSNEYEGEGFDHSFDLPEFQNELIQNIAKVNPNTVVTMYGGTGLKMSDWIEQVPVALHAFYPGQNGGQALAEILFGKINPSGKLPISIERNIEDNPAYASFPKFDNQNTLAEMDYKDDLMLGYRGYEKKGIKPLYPFGYGL”, the protein production entry is given as “failed”.
As to “PNFEKMKKEVEEILYNLKKEGGKYHCILAFSGGKDSVLALKLLKEKFKLNPLCVMVDNKYMAKEAIENALNVTKHYQVDLMILNRDYTDLFEDAIKRGESPCRRCSRLILREVWRVTKLLGLKYIITGHELP”, the protein production entry was “not failed”.
In the case of “PNFSHWGPPRIVEIFREPNVSLGISIVGGQTVIKRLKNGEELKGIFIKQVLEDSPAGKTNALKTGDKILEVSGVDLQNASHSEAVEAIKNAGNPVVFIVQSLSSTPRVIP” it was “not failed”; in that of “PNILYKIDNQYPYFTKNEKKIAQFILNYPHKVVNMTSQEIANQLETSSTSIIRLSKKVTPGGFNELKTRLSKFLPKEVTQYNVELVDNESTISLKNKLHSRSKAAL”, “not failed”; in that of “PRLYKEPSAKSNKFIIHNALSHCCLAGKVNEPQKNRILEEIEKSKANHFLILFRDSSCQFRALYTLSGETEELSRLAGYGPRTVTPAMVEGIYKYNSDRKRFTQIPAKTMSMSVDAFTIQGHLWQSKK”, “not failed”.
In the case of “PRRWPILLIFPGSGFIQMTEREAEPIALAFSAQGYQTMVVEYNLLDRGPVYPNAIDVGLTALKYAKNQGPPHYGDANKTILMGFSAGSHVAALTNAMGNNTEYLKTHGFGDSPLTSRLQVLGYPVIDLAAGFPKSREEAFKISPDEQYWASQNLVTDQTPPTFLWNTCADAVVPTMNSLLYAEALARHHVEYDIHTFTHGKHGLCLSTVETSRYNYPEDIEPRAANWVPLVLSWLSEMLD” it was “failed”; in that of “PSKKYVVDIWSDFVCPWCWIAKRRFENALNRSGMQDDVQVNVRAYRLAANQAPEPMIGALKRKLGNPASADSMMSTVSKYGRADGLDYRFDTMMFGDTADAHILVKAVEDTAVKKRLVEALYEQSTSHGRSLFDRSSLEAIAREVGVSDESIQLAWSSVELRNEMKDDESFAAQLGSGVPLFVFDSSFSVSGAQPDAVFLEALNKMVANSNPE”, “not failed”.
In the case of “PSVQVPQSTILYASDGSKLGETNYGEKRYWVPLKDMNPTIVKATVAIEDQNFYDHHGFDYKRMAGAALADLKAFAKVQGASTITQQYARNLYLEHDKTWKRKWNEAFYTIRLEQNYSKDEILEGYLNTIYYGHGAYGIEAASRLYFGKHAKNLTDAEAALLAGIPKGPSGY” it was “failed”; in that of “QAQITGRPEWIWLALGTALMGLGTLYFLVKGMGVSDPDAKKFYAITTLVPAIAFTMYLSMLLGYGLTMVPFGGEQNPIYWARYADWLFTTPLLLLDLALLVDADQGTILALVGADGIMIGTGLVGALTKVYSYRFVWWAISTAAMLYILYVLFFGFTSKAESMRPEVASTFKVLRNVTVVLWSAYPVVWLIGSEGAGIVPLNIETLLFMVLDVSAKVGFGLILLRSRAIFGEAEAPEPSAGDGAAATS”, “not failed”.
